The record followed here is paper PMC7477763.

Test [1] concerns the target Middle East respiratory syndrome papain-like protease (MERS PLpro), recombinant (Middle East respiratory syndrome coronavirus).
Test [2] concerns the target human UCH-L3, recombinant (human) (UniProt P15374).
Chain of UniProt P15374 (P15374 whole entry): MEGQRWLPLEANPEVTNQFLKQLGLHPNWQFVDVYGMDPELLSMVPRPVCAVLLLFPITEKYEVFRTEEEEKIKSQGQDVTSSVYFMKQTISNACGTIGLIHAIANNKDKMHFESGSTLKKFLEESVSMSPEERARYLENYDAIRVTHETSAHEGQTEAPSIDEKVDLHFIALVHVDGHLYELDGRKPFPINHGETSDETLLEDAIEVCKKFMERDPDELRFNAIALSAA

“Ub-ACC (ubiquitin with C-terminal ACC fluorophore) (from UniProt P0CG48 1-76)”: in test [1], the KM of hydrolysis of the ACC-labeled substrate (release of ACC) was 3.55 µM, the kcat of hydrolysis of the ACC-labeled substrate is 3.68 s^–1 and the kcat/KM of hydrolysis of the ACC-labeled substrate amounted to 1e+06 M^–1 s^–1. In addition, in test [2], the KM of hydrolysis of the ACC-labeled substrate (release of ACC) stood at 0.048 µM and the kcat of hydrolysis of the ACC-labeled substrate turned out to be 0.107 s^–1.
